Reference: paper PMC3184995

Key:
[1] = target: Ac-SLP-1, saposin-like protein from the dog hookworm Ancylostoma caninum (Ancylostoma caninum); assay: native gel or EMSA; native gel of purified Ac-SLP-1; migrates at 20 kDa under native conditions, at smaller sizes with SDS
[2] = target: Ac-SLP-1, saposin-like protein from the dog hookworm Ancylostoma caninum (Ancylostoma caninum); assay: SEC-MALS; Superose-12 column; samples injected at 5–10 mg mL^−1; 100 mM NaCl, 20 mM HEPES (pH 7.5) or 100 mM Na-citrate (pH 5.0); same result at both pH

Ac-SLP-1, saposin-like protein from the dog hookworm Ancylostoma caninum (natural protein)
stoichiometry N [1]: 2 | stoichiometry N [2]: 2
